In publication PMC3365051, “Sequence-Specific Binding of Recombinant Zbed4 to DNA: Insights into Zbed4 Participation in Gene Transcription and Its Association with Other Proteins”:

T1: Zbed4 (mouse (cDNA from mouse retinal RNA), UniProt Q80WQ9 1-1168)
T1 sequence: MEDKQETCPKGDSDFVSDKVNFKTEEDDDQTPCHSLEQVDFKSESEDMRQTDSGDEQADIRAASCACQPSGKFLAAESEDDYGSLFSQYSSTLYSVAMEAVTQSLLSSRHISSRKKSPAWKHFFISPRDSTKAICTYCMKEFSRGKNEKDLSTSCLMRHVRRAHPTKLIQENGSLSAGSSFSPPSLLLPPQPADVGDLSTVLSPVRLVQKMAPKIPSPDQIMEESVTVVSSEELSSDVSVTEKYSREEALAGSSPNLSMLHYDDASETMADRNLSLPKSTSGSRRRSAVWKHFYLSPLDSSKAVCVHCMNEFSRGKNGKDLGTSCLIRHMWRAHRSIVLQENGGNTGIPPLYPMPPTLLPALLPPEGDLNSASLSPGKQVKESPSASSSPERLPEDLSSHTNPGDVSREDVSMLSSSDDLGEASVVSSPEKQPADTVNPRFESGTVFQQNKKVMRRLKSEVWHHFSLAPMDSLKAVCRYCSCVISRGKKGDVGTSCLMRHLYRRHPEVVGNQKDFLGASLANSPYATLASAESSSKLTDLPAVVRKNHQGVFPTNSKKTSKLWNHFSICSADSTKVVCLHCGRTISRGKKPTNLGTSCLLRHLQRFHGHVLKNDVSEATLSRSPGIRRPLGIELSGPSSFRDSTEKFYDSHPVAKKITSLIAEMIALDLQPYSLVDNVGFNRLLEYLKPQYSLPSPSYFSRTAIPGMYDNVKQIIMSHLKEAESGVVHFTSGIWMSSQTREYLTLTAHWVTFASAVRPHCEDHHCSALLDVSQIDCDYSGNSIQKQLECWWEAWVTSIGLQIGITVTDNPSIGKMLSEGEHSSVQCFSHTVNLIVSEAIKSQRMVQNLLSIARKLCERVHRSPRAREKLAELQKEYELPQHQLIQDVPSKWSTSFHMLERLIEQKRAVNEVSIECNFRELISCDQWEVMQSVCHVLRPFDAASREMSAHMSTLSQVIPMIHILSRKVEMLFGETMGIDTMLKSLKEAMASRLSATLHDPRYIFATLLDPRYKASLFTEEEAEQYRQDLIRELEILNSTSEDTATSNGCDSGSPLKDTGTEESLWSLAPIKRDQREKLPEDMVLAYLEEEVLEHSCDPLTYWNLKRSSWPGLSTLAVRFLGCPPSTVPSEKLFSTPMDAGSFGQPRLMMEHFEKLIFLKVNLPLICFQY

B1: poly-A (A20) (ssDNA)
DNA: AAAAAAAAAAAAAAAAAAAA
B2: GC-box1 (ssDNA)
DNA: AAAAAGGGGCGGGGCAAAAA
B3: poly-ribo-C (ssRNA)
RNA: UUUUUCCCCCCCCCCUUUUU
B4: GC-box2 (ssDNA)
DNA: AAAAATGGGCGGAATAAAAA
B5: poly-ribo-G (ssRNA)
RNA: UUUUUGGGGGGGGGGUUUUU
B6: poly-T (called 20-mer, 19 T printed) (ssDNA)
DNA: TTTTTTTTTTTTTTTTTTT

The binders below were run against T1, Zbed4 (assay: EMSA; 20 ug Zbed4, 0.5 nM oligo in 20 mM HEPES pH 7.5, 150 mM NaCl, 5 mM beta-mercaptoethanol, 5% glycerol, 0.5 mM ascorbic acid, 0.5 mM propyl gallate, 10 uM ZnSO4). Conditions: protein: recombinant; tags: C-terminal His8.
B1: no binding. B2: binds. B3: no binding. B4: no binding. B5: binds. B6: no binding.
